From article PMC3883592

Molecular target: mEPCR on mouse brain microvascular endothelial cells (bEND3) (mouse (endogenous in bEND3)) (UniProt Q64695)
Assay: radioligand binding

mEPCR on mouse brain microvascular endothelial cells (bEND3) (mouse (endogenous in bEND3)), sequence (Q64695 18-242): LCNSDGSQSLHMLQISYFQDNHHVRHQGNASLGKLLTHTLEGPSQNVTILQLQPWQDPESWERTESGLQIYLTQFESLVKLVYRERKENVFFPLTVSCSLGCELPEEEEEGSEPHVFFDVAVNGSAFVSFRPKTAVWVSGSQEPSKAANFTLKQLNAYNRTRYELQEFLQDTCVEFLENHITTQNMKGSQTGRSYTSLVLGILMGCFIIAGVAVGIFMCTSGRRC

| Substance | amount bound as percent of human APC at 50 nM | fold increase of binding with 1 mM Mg2+ over Ca2+ alone | Kd |
| --- | --- | --- | --- |
| Mouse APC (enzyme) | 30% | 3 fold |  |
| Recombinant activated human protein C (Xigris) (enzyme) |  | 10 fold | 23 nM |
